Measurements published in patent publication US20120213809A1.

Columns and labels:
[1] = target: CCR7 on T2 hybridoma cells; experiment: cell-based or functional assay
[2] = target: CP-MVP recombinant vaults (rat MVP generated in Sf9 cells) (rat) (UniProt Q62667); experiment: densitometry of Coomassie stained SDS-PAGE gels of purified vault complexes
Chain of UniProt Q62667 (Q62667 2-861 limits assumed): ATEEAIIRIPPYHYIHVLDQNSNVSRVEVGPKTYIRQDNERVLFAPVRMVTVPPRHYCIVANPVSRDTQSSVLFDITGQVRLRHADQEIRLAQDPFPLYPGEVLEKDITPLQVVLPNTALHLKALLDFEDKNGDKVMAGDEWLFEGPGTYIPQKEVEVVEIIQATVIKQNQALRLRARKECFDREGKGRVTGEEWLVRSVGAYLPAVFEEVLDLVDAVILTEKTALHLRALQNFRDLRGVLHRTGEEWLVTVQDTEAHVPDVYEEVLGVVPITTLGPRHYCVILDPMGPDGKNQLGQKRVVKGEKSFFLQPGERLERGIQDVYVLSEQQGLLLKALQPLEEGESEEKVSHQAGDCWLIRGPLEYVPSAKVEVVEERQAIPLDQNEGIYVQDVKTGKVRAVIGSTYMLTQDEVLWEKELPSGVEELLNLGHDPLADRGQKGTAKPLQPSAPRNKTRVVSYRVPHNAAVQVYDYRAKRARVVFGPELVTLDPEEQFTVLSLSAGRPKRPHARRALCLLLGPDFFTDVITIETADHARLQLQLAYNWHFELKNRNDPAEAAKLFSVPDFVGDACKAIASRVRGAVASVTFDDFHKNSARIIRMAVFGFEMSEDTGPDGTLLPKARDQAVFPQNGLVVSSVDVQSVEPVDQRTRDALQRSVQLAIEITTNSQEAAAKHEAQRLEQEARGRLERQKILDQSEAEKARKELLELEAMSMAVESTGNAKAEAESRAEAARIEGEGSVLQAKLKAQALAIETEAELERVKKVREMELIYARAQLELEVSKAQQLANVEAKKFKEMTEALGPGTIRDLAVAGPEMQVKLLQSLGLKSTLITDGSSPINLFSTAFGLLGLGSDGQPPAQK

Chain of CCL-21 vault complex (CP-MVP vaults with packaged mouse CCL-21-mCherry-mINT) (chain): as the sequence (Q62667 2-861 limits assumed) above
Chain of CCL-21 vault complex (CP-MVP vaults with packaged mouse CCL-21-mCherry-mINT) (chain, part): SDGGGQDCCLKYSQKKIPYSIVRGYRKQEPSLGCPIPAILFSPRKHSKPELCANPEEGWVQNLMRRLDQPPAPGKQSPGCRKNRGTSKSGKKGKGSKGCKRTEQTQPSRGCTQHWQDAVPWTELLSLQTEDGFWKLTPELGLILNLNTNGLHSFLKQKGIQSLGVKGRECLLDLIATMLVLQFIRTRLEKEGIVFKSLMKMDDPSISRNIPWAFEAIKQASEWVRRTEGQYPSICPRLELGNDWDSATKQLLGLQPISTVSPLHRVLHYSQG

Which % migration of T2 cells (dual-chamber chemotaxis assay) [1] does the source give for “CCL-21 vault complex (CP-MVP vaults with packaged mouse CCL-21-mCherry-mINT)” here?
Its % migration of T2 cells (dual-chamber chemotaxis assay) is greater than 7.5%.

How did the molecules of CCL-21-mINT protein per vault complex (molecules per vault complex) [2] turn out when “mouse CCL-21-mCherry-mINT fusion protein” was run?
The molecules of CCL-21-mINT protein per vault complex (molecules per vault complex) was 20 to 30.

With “recombinant CCL-21 (R&D Systems) (ligand)” as the substance, how does the % migration of T2 cells (dual-chamber chemotaxis assay) [1] read?
Its % migration of T2 cells (dual-chamber chemotaxis assay) is less than 2.5%.
